One data set concerns the target T1, Aβ1-42 aggregate (Homo sapiens, UniProt P05067).
T1 construct: non-cross-linked A[…] 1-42 aggregate
In words: Western blot of Abeta 42 aggregate preparation (PICUP and non PICUP). Format: binding. The conditions noted are these: primary antibody 2 ug/ml; non PICUP and PICUP Aβ42 aggregate. As to the method: To cross-link the A042 oligomers before SDS-PAGE, PICUP (photo-induced cross-linking of peptides) was carried out as follows. A 1 mM solution of Ru(Bpy) was created by adding 2 μl of stock (at 10 mM) to 18 μl of 1×PBS. In addition, a 20 mM solution of ammonium persulphate (APS) was created by adding […] of stock (at 200 mM) to 18 μl of 1×PBS. Unused stock was immediately snap-frozen on dry ice and returned to the −80° C. freezer. In the dark room, 5 μl of Ru(Bpy) was added to 80 μl of aggregate (neat 10 uM sample), followed by 5 μl of APS. Samples were irradiated with a lamp in the dark room for 10 secs. 30 uls of (4×) LDS Sample buffer was added immediately.
SDS-PAGE was then performed on cross-linked (PICUP) and non-cross-linked A[…] 1-42 aggregate. The solutions were incubated in a hot block at 70° C. for 10 minutes. Meanwhile, a marker was created by combining 5 μl of Magic Mark XP Western Protein Standard, 5 μl of Novex Sharp Pre-stained Protein Standard. After the ten-minute incubation, the samples plus marker were loaded onto a NuPAGE Novex 4-12% Bis-Tris Gels (1.0 mm, 15 well, 15 μl per well) with MES running buffer. The gels were run at 200 V for 35 minutes. […]
During the final washes, the chemi-luminescence SuperSignal West Dura substrate (Thermo Scientific; 34075) were allowed to warm to room temperature. […]

For data set [1], the target named is T2, Amyloid beta 1-42 peptide (Rattus norvegicus, UniProt P08592).
T2 construct: Measurement of free Amyloid beta 1-42 peptide in rat CSF; from tissue; host or cells: CSF and brain homogenate of Sprague-Dawley rats
T2 sequence (P08592 672-713 limits assumed): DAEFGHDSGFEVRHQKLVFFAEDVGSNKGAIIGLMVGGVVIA
The data set is described as follows: Total Amyloid beta 1-42 peptide in rat brain homogenates (ELISA). The conditions noted are these: Sprague-Dawley rats, 0.25-10 mg/kg weekly over 14 days. Format: in vivo. The protocol:
Eight-week old male albino Harlan Sprague-Dawley rats (n=8-12) received a single dose of Abet0380-GL IgG1-TM antibody by intravenous injection with a dosing vehicle of 25 mM Histidine, 7% Sucrose, 0.02% p80 surfactant, pH 6.0 at 5 ml/kg. Dosing solutions were made just before dosing. Animals were anaesthetized at the time indicated and cerebrospinal fluid (CSF) was aspirated from the cistema magna. CSF samples were centrifuged for 10 minutes at approximately 3000× g at 4° C. within 20 minutes of sampling to remove cells or debris. Samples were then frozen on dry ice and stored at −70° C. for subsequent analysis.
Animals were sacrificed by decapitation, brain tissue was dissected and Amyloid beta peptides were extracted from brain tissue in diethylamine (DEA; Fluka. Sigma. UK; cat: 31729). Briefly, frozen brain tissue was homogenized in 0.2% DEA and 50 mM NaCl (Merck, USA: cat: 1.06404.1000). Brain homogenates were ultracentrifuged at 133,000×g, for 1 hour. Recovered supernatants were neutralized to pH 8.0 with 2 M Tris-HCl (TRIZMA®-hydrochloride; Sigma, UK; cat: 93363) and stored at −70° C. until analysis. Animal experimentations were performed in accordance with relevant guidelines and regulations provided by the Swedish Board of Agriculture. The ethical permission was provided by an ethical board specialized in animal experimentations: the Stockholm Södra Animal Research Ethical Board.
Measurement of total (free and Abet0380-GL bound) Amyloid beta 1-42 peptide in rat brain homogenates was performed using modifications of the mouse Amyloid beta (1-42) colorimetric ELISA kit (Invitrogen, UK: cat: KMB3441). […] To stop the reaction, 100 μl of Stop Solution was added to each well and the plate was read within 2 hours at an absorbance of 450 nm. […]
The ability of antibody Abet0144-GL to sequester amyloid beta 1-42 was investigated in a PK-PD study in normal rats. […] Free and total amyloid beta 1-42 levels were measured using assays described above.

T1 sequence (P05067 672-713 limits assumed): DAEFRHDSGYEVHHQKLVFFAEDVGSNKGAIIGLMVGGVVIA

B1: Abet0380-GL IgG1-TM: germlined Abet0380; VH SEQ ID NO: 524, VL SEQ ID NO: 533; human IgG1 triple mutant format (antibody, listed as Homo sapiens, V domains shown)
VH: EVQLLESGGGLVQPGGSLRLSCAASMGNFNYQTMWWVRQAPGKGLEWVSVIGKTNENIAYADSVKGRFTISRDNSKNTLYLQMNSLRAEDTAVYYCAREWMDHSRPYYYYGMDVWGQGTLVTVSS
VL: SYELTQPPSVSVSPGQTASITCSGHNLEDKFASWYQQKPGQSPVLVIYRDDKRPSGIPERFSASNSGHTATLTISGTQAMDEADYYCSSQDTVTRVFGGGTKLTVL
modifications: human IgG1 triple mutant constant region; /note=“Abet0380-GL”
notes: germlined Abet0380; human IgG1 triple mutant format
As to B1, the “Abeta42 recognition profile by Western blot” value with Aβ1-42 aggregate was “specifically recognises Aβ1-42 monomer and low n oligomer species up to and including pentamer”. Further, in data set [1], the “effect on total Amyloid beta 1-42 peptide in brain tissue” value was “dose-dependent increase”.

For the origin of these results see patent US20190262327A1, “COMBINATION OF A BACE INHIBITOR AND AN ANTIBODY OR ANTIGEN-BINDING FRAGMENT FOR THE TREATMENT OF A DISORDER ASSOCIATED WITH THE ACCUMULATION OF AMYLOID BETA” (ASTRAZENECA AB, priority 2016, published 2019).
